According to PMC10287916, “MSH2-MSH3 promotes DNA end resection during homologous recombination and blocks polymerase theta-mediated end-joining through interaction with SMARCAD1 and EXO1” (Nucleic Acids Research, 2023):

Legend:
[1] = molecular target: T1, MSH2-MSH6 (MutSα), purified (human, UniProt P43246 1-934; P52701 1-1360); assay: native gel or EMSA; 4 μM or 8 μM SMARCAD1 incubated with 1 nM Cy5-labeled 40 bp homoduplex, GT mismatch or 58 bp flap DNA in buffer H with 1 mM ATP, then MSH2-MSH6 titrated, 5 min; conditions: both partners purified
T1 construct: MSH2, human, full length; MSH6, human, full length; source: Hi5 insect cells (baculovirus), purified (HiTrap Heparin HP, HiTrap Q HP, Superdex 200)

[2] = molecular target: T2, MSH2-MSH3 (MutSβ), purified (human, UniProt P43246 1-934; P20585 1-1137); assay: co-IP; in vitro immunoprecipitation: purified first protein on antibody-conjugated Dynabead protein G, washed with buffer X, second purified protein added for 1 h; western blot; conditions: both partners purified
T2 construct: MSH2, human, full length; MSH3, human, full length; Purified on a HisTrap HP column; also called MSH2-MSH3 heterodimer; source: Hi5 insect cells (baculovirus), purified (HisTrap HP, Superdex 200)
T2 sequence (P43246 whole entry, chain 1 of 2): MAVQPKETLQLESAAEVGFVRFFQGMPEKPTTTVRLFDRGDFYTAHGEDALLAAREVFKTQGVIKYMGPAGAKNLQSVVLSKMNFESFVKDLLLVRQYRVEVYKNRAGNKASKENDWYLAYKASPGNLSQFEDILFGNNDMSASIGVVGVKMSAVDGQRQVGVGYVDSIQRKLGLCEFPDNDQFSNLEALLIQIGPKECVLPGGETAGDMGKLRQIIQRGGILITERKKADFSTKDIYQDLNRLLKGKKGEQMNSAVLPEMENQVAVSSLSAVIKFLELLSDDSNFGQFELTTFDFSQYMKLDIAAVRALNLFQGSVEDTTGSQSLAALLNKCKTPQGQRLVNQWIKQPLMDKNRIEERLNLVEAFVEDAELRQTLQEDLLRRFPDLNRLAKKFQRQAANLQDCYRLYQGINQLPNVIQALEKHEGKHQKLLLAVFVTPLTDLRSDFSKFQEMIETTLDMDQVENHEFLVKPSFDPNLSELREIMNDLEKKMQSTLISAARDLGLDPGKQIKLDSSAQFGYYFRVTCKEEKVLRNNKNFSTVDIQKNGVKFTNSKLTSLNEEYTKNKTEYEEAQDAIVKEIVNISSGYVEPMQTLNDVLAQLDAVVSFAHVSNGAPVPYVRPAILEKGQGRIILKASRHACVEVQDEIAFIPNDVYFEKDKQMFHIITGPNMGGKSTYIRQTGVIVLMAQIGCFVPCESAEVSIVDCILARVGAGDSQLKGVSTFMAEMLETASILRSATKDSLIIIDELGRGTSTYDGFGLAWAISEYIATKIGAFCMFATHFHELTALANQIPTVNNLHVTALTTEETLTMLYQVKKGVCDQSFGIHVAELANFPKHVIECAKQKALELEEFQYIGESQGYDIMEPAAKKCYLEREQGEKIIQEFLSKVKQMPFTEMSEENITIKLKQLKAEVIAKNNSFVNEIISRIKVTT
T2 sequence (P20585 whole entry, chain 2 of 2): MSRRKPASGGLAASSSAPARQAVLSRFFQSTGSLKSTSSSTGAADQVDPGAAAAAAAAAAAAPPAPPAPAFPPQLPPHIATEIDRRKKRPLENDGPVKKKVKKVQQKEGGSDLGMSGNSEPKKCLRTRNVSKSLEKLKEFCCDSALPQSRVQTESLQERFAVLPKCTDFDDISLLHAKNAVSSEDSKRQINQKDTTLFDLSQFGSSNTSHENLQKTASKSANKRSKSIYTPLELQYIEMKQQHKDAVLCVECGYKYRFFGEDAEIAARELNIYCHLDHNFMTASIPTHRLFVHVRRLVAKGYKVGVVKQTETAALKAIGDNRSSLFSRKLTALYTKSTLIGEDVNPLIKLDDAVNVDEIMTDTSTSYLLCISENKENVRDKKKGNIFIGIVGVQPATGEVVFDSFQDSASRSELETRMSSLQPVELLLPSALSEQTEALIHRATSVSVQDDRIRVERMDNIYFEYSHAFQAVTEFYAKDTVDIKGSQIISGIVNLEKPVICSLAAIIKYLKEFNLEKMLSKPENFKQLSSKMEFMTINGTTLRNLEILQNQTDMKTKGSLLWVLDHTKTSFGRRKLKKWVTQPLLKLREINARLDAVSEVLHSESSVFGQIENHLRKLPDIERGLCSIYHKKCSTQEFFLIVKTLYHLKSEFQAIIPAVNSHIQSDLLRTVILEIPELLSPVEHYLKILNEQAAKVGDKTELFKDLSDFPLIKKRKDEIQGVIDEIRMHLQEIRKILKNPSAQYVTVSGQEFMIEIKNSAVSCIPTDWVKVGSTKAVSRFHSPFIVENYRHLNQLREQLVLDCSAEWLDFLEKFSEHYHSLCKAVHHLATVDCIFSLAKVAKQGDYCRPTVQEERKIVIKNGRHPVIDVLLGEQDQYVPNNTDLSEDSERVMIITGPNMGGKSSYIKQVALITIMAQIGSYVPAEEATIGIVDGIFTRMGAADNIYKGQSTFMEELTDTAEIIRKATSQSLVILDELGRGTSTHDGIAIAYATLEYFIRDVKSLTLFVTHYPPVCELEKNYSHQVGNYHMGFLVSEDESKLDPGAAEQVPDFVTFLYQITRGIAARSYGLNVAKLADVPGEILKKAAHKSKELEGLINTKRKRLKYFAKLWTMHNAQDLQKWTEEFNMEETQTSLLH

T1 sequence (P43246 whole entry, chain 1 of 2): as the sequence (P43246 whole entry, chain 1 of 2) above
T1 sequence (P52701 whole entry, chain 2 of 2): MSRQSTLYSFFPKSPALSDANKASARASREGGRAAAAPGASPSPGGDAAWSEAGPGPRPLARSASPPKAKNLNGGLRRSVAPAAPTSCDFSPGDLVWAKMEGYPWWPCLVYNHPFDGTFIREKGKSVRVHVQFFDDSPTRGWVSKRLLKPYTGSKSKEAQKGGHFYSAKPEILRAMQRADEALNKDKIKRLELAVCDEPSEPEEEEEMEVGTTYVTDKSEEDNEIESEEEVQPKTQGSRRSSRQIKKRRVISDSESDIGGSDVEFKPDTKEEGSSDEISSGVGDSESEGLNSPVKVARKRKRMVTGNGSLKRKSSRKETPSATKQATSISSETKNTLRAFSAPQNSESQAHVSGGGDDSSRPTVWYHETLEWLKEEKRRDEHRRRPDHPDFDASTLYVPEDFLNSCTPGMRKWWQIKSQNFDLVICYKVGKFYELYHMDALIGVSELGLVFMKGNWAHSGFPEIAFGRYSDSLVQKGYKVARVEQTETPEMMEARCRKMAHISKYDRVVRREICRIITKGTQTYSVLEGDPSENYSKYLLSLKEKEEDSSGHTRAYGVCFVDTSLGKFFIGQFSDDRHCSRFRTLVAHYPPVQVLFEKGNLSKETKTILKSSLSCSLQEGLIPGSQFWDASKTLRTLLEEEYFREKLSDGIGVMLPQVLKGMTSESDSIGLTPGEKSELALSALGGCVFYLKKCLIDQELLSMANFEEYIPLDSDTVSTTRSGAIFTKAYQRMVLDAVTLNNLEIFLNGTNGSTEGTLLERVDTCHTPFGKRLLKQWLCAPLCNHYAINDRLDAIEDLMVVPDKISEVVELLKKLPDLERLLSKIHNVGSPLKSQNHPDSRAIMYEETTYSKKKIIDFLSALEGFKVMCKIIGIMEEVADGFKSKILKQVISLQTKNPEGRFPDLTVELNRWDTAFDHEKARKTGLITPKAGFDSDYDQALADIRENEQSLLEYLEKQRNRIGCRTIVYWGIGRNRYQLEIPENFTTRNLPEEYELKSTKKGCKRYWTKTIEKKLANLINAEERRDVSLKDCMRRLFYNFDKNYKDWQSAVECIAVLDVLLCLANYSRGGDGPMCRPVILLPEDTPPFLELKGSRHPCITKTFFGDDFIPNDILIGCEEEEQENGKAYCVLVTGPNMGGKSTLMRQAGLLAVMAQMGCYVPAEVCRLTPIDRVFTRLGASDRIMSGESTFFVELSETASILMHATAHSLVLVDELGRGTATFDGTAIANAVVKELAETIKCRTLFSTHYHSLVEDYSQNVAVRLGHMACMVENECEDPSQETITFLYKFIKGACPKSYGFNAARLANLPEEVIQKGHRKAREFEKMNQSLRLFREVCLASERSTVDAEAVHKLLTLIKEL

B1: SMARCAD1, purified (enzyme, human, UniProt Q9H4L7 1-1026, looked up)
chain: MNLFNLDRFRFEKRNKIEEAPEATPQPSQPGPSSPISLSAEEENAEGEVSRANTPDSDITEKTEDSSVPETPDNERKASISYFKNQRGIQYIDLSSDSEDVVSPNCSNTVQEKTFNKDTVIIVSEPSEDEESQGLPTMARRNDDISELEDLSELEDLKDAKLQTLKELFPQRSDNDLLKLIESTSTMDGAIAAALLMFGDAGGGPRKRKLSSSSEPYEEDEFNDDQSIKKTRLDHGEESNESAESSSNWEKQESIVLKLQKEFPNFDKQELREVLKEHEWMYTEALESLKVFAEDQDMQYVSQSEVPNGKEVSSRSQNYPKNATKTKLKQKFSMKAQNGFNKKRKKNVFNPKRVVEDSEYDSGSDVGSSLDEDYSSGEEVMEDGYKGKILHFLQDASIGELTLIPQCSQKKAQKITELRPFNSWEALFTKMSKTNGLSEDLIWHCKTLIQERDVVIRLMNKCEDISNKLTKQVTMLTGNGGGWNIEQPSILNQSLSLKPYQKVGLNWLALVHKHGLNGILADEMGLGKTIQAIAFLAYLYQEGNNGPHLIVVPASTIDNWLREVNLWCPTLKVLCYYGSQEERKQIRFNIHSRYEDYNVIVTTYNCAISSSDDRSLFRRLKLNYAIFDEGHMLKNMGSIRYQHLMTINANNRLLLTGTPVQNNLLELMSLLNFVMPHMFSSSTSEIRRMFSSKTKSADEQSIYEKERIAHAKQIIKPFILRRVKEEVLKQLPPKKDRIELCAMSEKQEQLYLGLFNRLKKSINNLEKNTEMCNVMMQLRKMANHPLLHRQYYTAEKLKEMSQLMLKEPTHCEANPDLIFEDMEVMTDFELHVLCKQYRHINNFQLDMDLILDSGKFRVLGCILSELKQKGDRVVLFSQFTMMLDILEVLLKHHQHRYLRLDGKTQISERIHLIDEFNTDMDIFVFLLSTKAGGLGINLTSANVVILHDIDCNPYNDKQAEDRCHRVGQTKEVLVIKLISQGTIEESMLKINQQKLKLEQDMTTVDEGDEGSMPADIATLLKTSMGL
notes: SMARCAD1, human, full length; source: Hi5 insect cells (baculovirus), purified (HisTrap HP, Superdex 200)
B1: binds [1]; binds [2].
